The values below come from patent publication US20110123544A1 (published 2011).

For assay [1], the target named is T1, recombinant human interleukin 12 (p40/p35 heterodimer) (human, UniProt P29460 23-328; P29459 23-219).
T1 chain 1: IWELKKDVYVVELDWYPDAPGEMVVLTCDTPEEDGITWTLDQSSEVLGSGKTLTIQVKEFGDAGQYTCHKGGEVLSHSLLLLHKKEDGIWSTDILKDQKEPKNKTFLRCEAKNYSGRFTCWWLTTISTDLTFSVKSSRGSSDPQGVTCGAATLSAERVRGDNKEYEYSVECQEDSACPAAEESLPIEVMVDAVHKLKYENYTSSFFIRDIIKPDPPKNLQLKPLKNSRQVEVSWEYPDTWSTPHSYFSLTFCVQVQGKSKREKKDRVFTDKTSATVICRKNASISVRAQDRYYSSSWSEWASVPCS
T1 chain 2: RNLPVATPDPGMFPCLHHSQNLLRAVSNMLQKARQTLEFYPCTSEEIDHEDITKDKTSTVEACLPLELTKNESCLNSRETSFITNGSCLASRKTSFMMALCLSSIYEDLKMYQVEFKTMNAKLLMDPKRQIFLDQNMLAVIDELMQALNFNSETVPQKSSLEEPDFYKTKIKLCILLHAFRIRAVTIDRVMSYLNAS
Description: BIAcore; unmutated.

Assay [2] deals with T1, recombinant human interleukin 12 …. Description: BIAcore; unmutated.
For assay [3], the target named is recombinant rhesus IL-12 (rhesus monkey) (UniProt P48091). Description: cell-based or functional assay.
In the next assay the target is T2, Cyno IL-12 (PBMC sup) (cynomolgus monkey).
T2 chain 1: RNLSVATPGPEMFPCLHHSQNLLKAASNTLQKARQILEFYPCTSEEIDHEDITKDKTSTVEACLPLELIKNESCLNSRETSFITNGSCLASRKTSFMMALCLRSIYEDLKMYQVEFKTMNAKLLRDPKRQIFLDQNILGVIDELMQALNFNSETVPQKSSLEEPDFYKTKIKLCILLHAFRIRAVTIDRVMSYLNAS
T2 chain 2: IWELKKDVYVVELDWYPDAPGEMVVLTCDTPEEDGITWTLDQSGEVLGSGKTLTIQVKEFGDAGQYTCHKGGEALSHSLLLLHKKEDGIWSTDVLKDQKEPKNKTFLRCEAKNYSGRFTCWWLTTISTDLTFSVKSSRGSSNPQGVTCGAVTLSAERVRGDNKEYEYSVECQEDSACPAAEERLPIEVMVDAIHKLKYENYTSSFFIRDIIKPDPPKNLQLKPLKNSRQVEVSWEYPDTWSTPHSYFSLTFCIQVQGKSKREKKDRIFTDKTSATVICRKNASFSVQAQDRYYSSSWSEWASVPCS
Nature of the assay: cell-based or functional assay.

Assay [4] concerns the target T3, recombinant human IL-12 (rhIL-12) (human, UniProt P29459 23-219; P29460 23-328).
T3 construct: disulfide-linked p35/p40 heterodimer (p70); also called rec. human IL12; IL-12 p70
T3 sequence (looked up) 1: T1 chain 2
T3 sequence (looked up) 2: T1 chain 1
Description: BIAcore (SPR) off-rate on IL-12 chip.
Description: The system utilizes the optical properties of SPR to detect alterations in protein concentrations within a dextran biosensor matrix. Proteins are covalently bound to the dextran matrix at known concentrations. […] To determine the off rate (koff), on rate (kₒₙ), association rate (Ka) and dissociation rate (Kd) constants, BIAcore kinetic evaluation software (version 2.1) was used.

Assay [5] concerns the target T3, recombinant human IL-12 (rhIL-12). Nature of the assay: cell-based or functional assay.
Assay [6] shares this target. Nature of the assay: RB assay: inhibition of 125I-hIL-12 binding to IL-12 receptors on PHA blasts.
Description: PHA blast cells isolated as described above, were washed once and resuspended in binding buffer to a cell density of 2×10⁷ cells/ml. […] The cell pellet was examined for cell bound radioactivity using a gamma counter. […] Incubations were carried out in duplicate.
Assay [7] shares this target. Nature of the assay: cell-based or functional assay. This is another data set of the same source.
For another assay, the target named is T4, Baboon IL-12 (PBMC sup) (baboon).
T4 chain 1: T2 chain 1 with F82V, N85K, K110Q, M111I, R125M, K172R
T4 chain 2: T2 chain 2 with V230A
Description: cell-based or functional assay.

The target of assay [8] is T1, recombinant human interleukin 12 …. Nature of the assay: BIAcore; unmutated.

Positions count from the first letter of the chain named. Names may count otherwise. Read-outs that look alike come from different tables or passages of the source.

For the molecule FTFSSYGMH [Y61 H30 S], in assay [1], the koff is 0.000168 s⁻¹.

Turning to FTFSSYGMH [Y61 H31 S], in assay [1], the koff was 0.000249 s⁻¹.

Turning to FTFSSYGMH [Y61 H33 G], the koff in assay [1] amounted to 0.000178 s⁻¹.

Consider FIRYDGSNKYYADSVKG [Y61 H50 F], for which, in assay [2], the koff is 0.000204 s⁻¹.

B1: Y61 IgG (antibody, V domains shown)
VH: QVQLVQSGGGVVQPGRSLRLSCAASGFTFSSYGMHWVRQAPGKGLEWVAFIRYDGSNKYYADSVKGRFTISRDNSKNTLYLQMKSLRAEDTAVYYCKTHGSHDNWGQGTMVTVSS
VL: SYVLTQPPSVSGTPGQRVTISCSGGRSWIGSNTVKWYQQLPGTAPKLLIYGNDQRPSGVPDRFSGSKSGTSASLAITGVQAEDEADYYCQSYDRGTHPALLFGTGTKVTVLG
Take B1: the IC50 (M), Rhesus IL-12 Purified in [3] is 1e-10 M. For the same molecule, the “IC50 (M), Cyno IL-12 PBMC sup” value with Cyno IL-12 (PBMC sup) was 2.2e-10 M.

B2: 99-H7 (scFv, V domains shown)
VH: B1 VH
VL: B1 VL with W28N, D93P, R94D, H97P, P98A, A99S, L100R, L101V
For B2, the koff in [4] stood at 0.0033 s⁻¹.

B3: Y61-L50Y-H31E-L94Y IgG (antibody, V domains shown)
VH: B1 VH with S31E
VL: B1 VL with W28N, G51Y, G95Y
As for B3, in assay [5], the “IFN gamma IC50” value was 0.01 nM and the “PHA assay IC50” value amounted to 0.01 nM. Moreover, the koff in [4] was 4.64e-05 s⁻¹.

B4: 99-F7 (scFv, V domains shown)
VH: B1 VH
VL: B1 VL with W28N, D93P, R94N, G95S, T96Y, H97P, P98I, A99S, L100R, L101V
Consider B4, for which the koff in [4] turned out to be 0.0048 s⁻¹.

B5: Y55 (scFv, V domains shown)
VH: B1 VH
VL: B1 VL with W28N, P98F, A99Q, L100M, L101Y
For B5, the “PHA assay IC50” value in assay [5] was more than 10 nM. Moreover, the koff in assay [4] came to 0.00106 s⁻¹. Also, in assay [6], the IC50 is 0.14 nM.

B6: 99-F8 (scFv, V domains shown)
VH: B1 VH
VL: SYVLTQPPSVSGTPGQRVTISCSGGRSNIGSNTVKWYQQLPGTAPKLLIYGNDQRPSGVPDRFSGSKSGTSASLAITGVQAEDEADYYCQSYIRAPQQVFGTGTKVTVLG
Turning to B6, the koff in assay [4] is 0.0037 s⁻¹.

B7: Y61-L50Y-H31E IgG (antibody, V domains shown)
VH: B1 VH with S31E
VL: B1 VL with G51Y
B7: in assay [5], the “IFN gamma IC50” value is 0.02 nM and the “PHA assay IC50” value is 0.06 nM. Further, the koff in [4] stood at 2.99e-05 s⁻¹.

B8: 99-H11 (scFv, V domains shown)
VH: B1 VH
VL: B1 VL with W28N, D93S, R94T, G95H, T96M, H97P, P98I, A99S, L100R, L101V
B8: the dissociation rate constant (koff) in [4] was determined as 0.0049 s⁻¹.

B9: 149-6 (scFv, V domains shown)
VH: B1 VH with K97T
VL: B1 VL with W28N, G30V, T96F, H97T, P98G, A99S, L100R, L101V
Consider B9, for which, in assay [7], the “PHA assay IC50 (M) p70:p40 1:0” value worked out at 9e-10 M, the “PHA assay IC50 (M) p70:p40 1:20” value amounted to 1e-09 M and the “PHA assay IC50 (M) p70:p40 1:50” value came out at 1e-09 M.

B10: Y19 (scFv, V domains shown)
VH: B1 VH
VL: B1 VL with W28N, T96H, L100M, L101S
Consider B10, for which, in assay [5], the “PHA assay IC50” value was more than 10 nM. For the same molecule, the koff in [4] was 0.000226 s⁻¹. In addition, in [6], the IC50 was determined as 0.03 nM.

B11: Y61 (scFv, V domains shown)
VH: B1 VH
VL: B1 VL
notes: scFv; also called Y61 scFv
As to B11, the “PHA assay IC50” value in assay [5] stood at 0.14 nM. For the same molecule, the koff in assay [4] was found to be 0.000275 s⁻¹. In addition, the IC50 in assay [6] was determined as 0.04 nM.

B12: 99-F6 (scFv, V domains shown)
VH: B1 VH
VL: B1 VL with W28N, R94S, T96S, H97T, P98G, A99S, L100R, L101V
On to B12, for which the koff in assay [4] was determined as 0.0049 s⁻¹.

B13: 149-5 (scFv, V domains shown)
VH: B1 VH with K97T, N104T
VL: B1 VL with W28N, R94S, G95S, T96L, H97W, P98G, A99T, L100R, L101V
With B13, in assay [7], the “PHA assay IC50 (M) p70:p40 1:0” value turned out to be 6.5e-09 M, the “PHA assay IC50 (M) p70:p40 1:20” value was found to be 7e-09 M and the “PHA assay IC50 (M) p70:p40 1:50” value was determined as 4e-09 M.

B14: D9 (scFv, V domains shown)
VH: B1 VH
VL: B1 VL with W28N, T96R, H97L, L100Q, L101T
In the case of B14, the koff in assay [4] is 0.000821 s⁻¹. The IC50 in assay [6] came to 3.5 nM.

B15: 136-15 (scFv, V domains shown)
VH: B1 VH
VL: B1 VL with G25S, W28N, S91T, R94K, T96F, H97T, P98G, A99S, L100S, L101V
Consider B15, for which, in [7], the “PHA assay IC50 (M) p70:p40 1:20” value was found to be 5e-09 M and the “PHA assay IC50 (M) p70:p40 1:50” value was 4e-09 M.

B16: J695 (Y61-L94Y-L50Y IgG) (antibody, V domains shown)
VH: B1 VH with Q6E, K84N
VL: B1 VL with S1Q, Y2S, T13A, G25S, W28N, G51Y, V79L, G95Y
As for B16, the “IC50 (M), Cyno IL-12 PBMC sup” value in the assay with Cyno IL-12 (PBMC sup) is 1e-11 M. In addition, the “IC50 (M), Baboon IL-12 PBMC sup” value with Baboon IL-12 (PBMC sup) was found to be 1.5e-11 M.

Turning to FIRYDGSNKYYADSVKG [Y61 H54 G], in assay [2], the koff came out at 0.000178 s⁻¹.

In the case of FIRYDGSNKYYADSVKG [Y61 H53 D], the koff in assay [2] came to 0.000151 s⁻¹.

As to FIRYDGSNKYYADSVKG [Y61 H58 Y], in assay [8], the koff stood at 0.00031 s⁻¹.

Turning to FTFSSYGMH [Y61 H32 Y], in assay [1], the koff is 0.000337 s⁻¹.

As to FIRYDGSNKYYADSVKG [Y61 H52 R], the koff in assay [2] was 0.000206 s⁻¹.

Take FIRYDGSNKYYADSVKG [Y61 H56 N]: the koff in assay [8] amounted to 0.000385 s⁻¹.
